The data set in a line: protein stability index of a GFP-peptide fusion (GPS, HEK-293T) (PSI 1-6); higher = more stable. The note with it: c terminus: a fixed tail appended.

± gives the standard deviation.
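Further: 24-mer peptide tiles fused after GFP, lentivirally expressed, FACS-sorted into six equal bins by GFP/DsRed ratio, decoded by Illumina sequencing, PSI is the read-weighted mean bin number.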

As to RVYHGWLFEGLGRDKAEELLQLPD [SLA], the protein stability index runs as follows: (treatment: DMSO) 3.01 ± 0.53; (treatment: MLN4924 1 uM, 8 h) 2.82 ± 0.57.

On to LHRLKFLGFARRNWGNGKRPNLET [GDAP1], for which the protein stability index by setting is: (treatment: DMSO) 2.22 ± 0.32; (treatment: MLN4924 1 uM, 8 h) 2.44 ± 0.45.

As to MINSTSTQPPDESCSQNLLITQQI [P2RY14], the protein stability index turned out to be 4.24 ± 0.16 (treatment: DMSO) and 4.26 ± 0.096 (treatment: MLN4924 1 uM, 8 h).

Take QVHRQGERRRELVRSQTLPRTSEA [SMTNL2]: the protein stability index (treatment: DMSO) came out at 4.957 ± 0.024 and the protein stability index (treatment: MLN4924 1 uM, 8 h) was determined as 4.98 ± 0.16.

On to LYPSLNVTSFDSVVPEKLDDLVPK [ALG2], for which the protein stability index runs as follows: (treatment: DMSO) 4.32 ± 0.14; (treatment: MLN4924 1 uM, 8 h) 4.42 ± 0.11.

Consider VTLMVAKWTGDFFNKGIYDIHVGL [CLCN6], for which the protein stability index came out at 2.46 ± 0.4 (treatment: DMSO) and 3.58 ± 0.26 (treatment: MLN4924 1 uM, 8 h).

Take PEFVAPEIVNYEPLGLEADMWSIG [DAPK3]: the protein stability index reads like this: (treatment: DMSO) 3.46 ± 0.24; (treatment: MLN4924 1 uM, 8 h) 3.93 ± 0.7.

As to GVEPAPWAQLEAPARLLLQALQAG [FANCE], the protein stability index reads like this: (treatment: DMSO) 2.89 ± 0.27; (treatment: MLN4924 1 uM, 8 h) 2.92 ± 0.38.

PRNSCITCPQCHRSLILDDRGLRG [TRIM9]: the protein stability index was determined as 2.58 ± 0.27 (treatment: DMSO) and 3 ± 0.45 (treatment: MLN4924 1 uM, 8 h).

As for IVVHCSAGIGRTGTFCSLDICLAQ [PTPN9], the protein stability index worked out at 3.85 ± 1 (treatment: DMSO) and 3.45 ± 0.19 (treatment: MLN4924 1 uM, 8 h).

On to KLFCIPVHGIRSVGTAAVNMCLVA [IMPA1], for which the protein stability index was determined as 2.4 ± 0.8 (treatment: DMSO) and 2.26 ± 0.85 (treatment: MLN4924 1 uM, 8 h).

Take PEVTSALLESLNQQRLQGQLCDVS [ZBTB22]: the protein stability index reads like this: (treatment: DMSO) 3.57 ± 0.23; (treatment: MLN4924 1 uM, 8 h) 3.65 ± 0.35.

For the sequence AEDTEKKDEPSKYNQQQALIDQRY [CEP70], the protein stability index runs as follows: (treatment: DMSO) 5.2 ± 0.31; (treatment: MLN4924 1 uM, 8 h) 5.36 ± 0.059.

YTYEKLLWTTSRVLKVLSVCSSNK [CTNNB1]: the protein stability index is 2.47 ± 0.36 (treatment: DMSO) and 2.22 ± 0.43 (treatment: MLN4924 1 uM, 8 h).

Sequence TTSPNVLWPTPGHLSPLVVHRQLS [ESR2] had a protein stability index (treatment: DMSO) of 2.85 ± 0.29 and a protein stability index (treatment: MLN4924 1 uM, 8 h) of 2.72 ± 0.41.

YESHSTSELEDLTEPEQRELKTKL [TPD52L3]: the protein stability index turned out to be 5.63 ± 0.13 (treatment: DMSO) and 5.52 ± 0.11 (treatment: MLN4924 1 uM, 8 h).

Take RIHSGEEPHKCPECGKRFLRSSDL [ZNF449]: the protein stability index is 3.51 ± 0.73 (treatment: DMSO) and 4.09 ± 0.34 (treatment: MLN4924 1 uM, 8 h).

The sequence ELWIYNMETGRWKKINTEGDVPPS [KLHDC2] gave a protein stability index (treatment: DMSO) of 3.43 ± 0.2 and a protein stability index (treatment: MLN4924 1 uM, 8 h) of 3.61 ± 0.27.

Take FKAHKSVLAARSPVFNAMFEHEME [SPOPL]: the protein stability index by setting is: (treatment: DMSO) 3.17 ± 0.41; (treatment: MLN4924 1 uM, 8 h) 3.17 ± 0.32.

On to SQDALRVVSTSGEQMKVYKCEHCR [IKZF1], for which the protein stability index by setting is: (treatment: DMSO) 4.29 ± 0.33; (treatment: MLN4924 1 uM, 8 h) 4.38 ± 0.3.

Regarding RLVLDAALALQARGCSVKIWTAHY [ALG2], the protein stability index reads like this: (treatment: DMSO) 2.87 ± 0.68; (treatment: MLN4924 1 uM, 8 h) 2.69 ± 0.72.

For the sequence NGLALGPDLNILEDSAESRPWRAG [PSD2], the protein stability index reads like this: (treatment: DMSO) 4 ± 0.14; (treatment: MLN4924 1 uM, 8 h) 4.24 ± 0.38.

Regarding YAPSCAKCKKKITGEIMHALKMTW [PDLIM7], the protein stability index reads like this: (treatment: DMSO) 2.53 ± 0.33; (treatment: MLN4924 1 uM, 8 h) 2.44 ± 1.

For HQPPQAGAGDVVLLQRELAQEDSL [LYSMD4], the protein stability index is 5.09 ± 0.13 (treatment: DMSO) and 5.04 ± 0.15 (treatment: MLN4924 1 uM, 8 h).

GHVLLTDSEFSMQEPMVPAKLGTQ [PPFIA4] registered a protein stability index (treatment: DMSO) of 4.31 ± 0.1 and a protein stability index (treatment: MLN4924 1 uM, 8 h) of 3.94 ± 0.26.

As to ETTESQQNGEEGTSTPEDKESGQE [SMARCE1], the protein stability index runs as follows: (treatment: DMSO) 5.61 ± 0.18; (treatment: MLN4924 1 uM, 8 h) 5.23 ± 0.17.

On to IINDTYSEVKEELAGQKDELQLSD [PKD2L1], for which the protein stability index runs as follows: (treatment: DMSO) 5.35 ± 0.23; (treatment: MLN4924 1 uM, 8 h) 5.28 ± 0.22.

As to AREELMESRMRIESLSSQLSNLQK [LMNB1], the protein stability index turned out to be 3.95 ± 0.18 (treatment: DMSO) and 4.07 ± 0.19 (treatment: MLN4924 1 uM, 8 h).

Take LPTDGSTGVELAPRSAEPGYLVTK [PCDHGA10]: the protein stability index is, setting by setting: (treatment: DMSO) 4.52 ± 0.17; (treatment: MLN4924 1 uM, 8 h) 4.66 ± 0.15.

For the sequence AKLAINQGMEVDLVTGLAIEEACY [AUH], the protein stability index was 2.07 ± 0.21 (treatment: DMSO) and 2.32 ± 0.44 (treatment: MLN4924 1 uM, 8 h).

On to KAQLPRRESERRNHSLARHADILA [FBXO28], for which the protein stability index reads like this: (treatment: DMSO) 3.85 ± 0.11; (treatment: MLN4924 1 uM, 8 h) 3.96 ± 0.14.

For the sequence PQAPDPEEEENRDSQQPGKRRKDS [FANCE], the protein stability index is, setting by setting: (treatment: DMSO) 5.74 ± 0.21; (treatment: MLN4924 1 uM, 8 h) 5.62 ± 0.3.

In the case of HMSLEKDIAAMTNSLFIDRQKCMA [TEKT4], the protein stability index (treatment: DMSO) is 3 ± 0.18 and the protein stability index (treatment: MLN4924 1 uM, 8 h) stood at 3.02 ± 0.23.

As for CHCLKGFTLNPDKKTCRRINYCAL [MATN2], the protein stability index is, setting by setting: (treatment: DMSO) 2.5 ± 0.24; (treatment: MLN4924 1 uM, 8 h) 2.14 ± 0.18.

Regarding GEGTGSPPKWQIGEQEFEALMRML [ADD1], the protein stability index is 3.29 ± 0.45 (treatment: DMSO) and 3.2 ± 0.31 (treatment: MLN4924 1 uM, 8 h).

On to RLPRAIGMSLAKELIFSARVLDGK [AUH], for which the protein stability index reads like this: (treatment: DMSO) 1.83 ± 0.39; (treatment: MLN4924 1 uM, 8 h) 1.9 ± 0.2.

The record behind these values is the supplement of paper PMC10567573.
